The data set can be described thus: label from the status in PepcDB records.

Here are results for 31 sequences from a protein production outcome set (Wang et al. 2014).
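Further: failed if final PepcDB status was selected cloned or expressed and not failed if soluble or beyond.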

For “QSQGGGSVTKKRKLESSESRSSFSQHARTSGRVAVEEVDEEGKFVRLRNKSNEDQSMGNWQIRRQNGDDPLMTYRFPPKFTLKAGQVVTIWASGAGATHSPPTDLVWKAQNTWGCGSSLRTALINSTGEEVAMRKLVR”, the protein production entry is reported as “not failed”.

Consider “QTLLQANPDPVLVADAETGKIVEANAAATGLLGRPREEIIGAHQTDLHPSGRAEAYASLFRRSLDEDGPMRALPDGTQIEVVTDEGTTVPVEVNATTVDLPDGRVVYGVFRDVSE”, for which the protein production result is “failed”.

On to “QTPVYLDTSKPIEERVKDALSRMTLEEKVKMTHAQSKFSSPGVPRLGIPEVWATDGPHGIRPEVLWDEWDQAGWTNDSCIAYPALTCLSATWNPEMSYLYGKSIGEEARYRKKDILLGPGVNIYRTPLNGRNFEYMGEDPYLSSMMVVPYIKGVQENGVAACVKHYALNNQEFNRHTTNVHLSDRALYEIYLPAFKAAVQEGGAWAIMGAYNLYSFSEDTDSGKLYKTQHACHNKRLLQDILRKEWGFDGVVVSDWGGVHDTFQAISNGLDMEFGSWTNGLSAGTRNAYDNYYLAHPYLKLIQDGTVGTKELDEKVSNILRLIFRTSMNPH”, for which the protein production result was “failed”.

As to “QTQALFMNTRRAVFKERALRQALGEMFDFEWTNRALFSNSYLRSRSYYPNSEFAASGVPEGQEWLYLSPYRKQLPAQLFKQPFSLPTTEGRGIPRETLRHALGLLADAGWKLSGDRLLNKKGEPLRFEILLVNPSLERILQPYRENLASIGIDARLRTVDRAQYKQRLDQFDYDMILMTLPQTLSPGLEQWQYFHSSQVKVKGSKNYAGIANPVVDAMLNRLLGAHSRDEQVAAARALDRTLLWQYYSIPNWYLN”, the protein production result is “failed”.

Consider “QTVNHELQSKVSELSEANNDMKNLLNSTDIATLFLDDSLNIRRFTTRTASIIKLIASDIGRPITDIVTDLHYPALADDAQEVLRTLIFREKQVSANNDRWFSVKIMPYRTQENKIVGLVITFSDITTSKKLEA”, for which the protein production entry is listed as “failed”.

Turning to “QVGIYRTRTCDGLILNANQRFADLFGFDSPQEIIGIEHTIGYWVNPSDRQQGIEVMKRDGEVRSYEAQMRKRDGTVFWGLFSSYLNAGDDYIEGVIADISDVYDELRLRKQAEVALQASEAELRSLFSAIPDPLCVVTAQ”, the protein production result was “failed”.

For “QVKRQTRRVASATYMVSLLDSQIDSPATLFIDEQALEAAKRRSYQRGVLEGSEMSRVFSWMRPNDLIWTYWINNYLLGKSPPPFDILYWNNDTTRLPAALHGDLLDFFKHNPLSHAGGLEVCGTPIDLQKVTVDSFSVAGINDHITPWDSVYRSTLLLGGDRRFVLANSGHVQSILNP”, the protein production entry is on record as “not failed”.

For the sequence “QVYKAKFGTPNRGWVIIVHGLGEHSGRYSKLVSMLVNEGYAVYTFDWPGHGKSPGKRGHTSVEEAMEIIDFIIEEINDKPFLFGHSLGGLTVIRYAETRPEKIRGVIASSPALAKSPKTPSFMVALAKILGVLLPSLTLSNGIDPNLLSRNPDAVKRYIEDPLVHDRISAKLGRSIFKNMDLAHREAHKIKVPVLLLVGTGDVITPPEGARKLYGEIKVEDKEIVEFEGAYHEIFEDPEWGEEFHKKIVEWIKKH”, the protein production entry is listed as “not failed”.

For “RDIGKESLEKAPEVELVNSAEEGNAVVLDIRSPDEEDESPLEIVGVEVKHLPFYKLATQFGDLDQSKTYLLYCSRGVMSRLQALYLQEQGFNNVKVYR”, the protein production result was “failed”.

As for “RDRSTIARIQFRLPDGSSFTNQFPSDAPLEEARQFAAQTVGNTYGNFSLATMFPRREFTREDYKRRLLDLELAPSASVVLLPAGRPATSIVHSSSGDILMID”, the protein production entry is recorded as “not failed”.

As to “RERLLSEAKATLQNYVAIAMTAIKPLYDAAAPGDEAARANAIKLLSAVSYGKDGYLFGYDSQVVRIFRSTSPDGLGKSFVDARDANGVYINR”, the protein production result is reported as “failed”.

“RERLRFERDHFRILVDVTNTVISKLELDVLAAEVSKEIHRFFNIDYISLAICGTHNDKNKLNVFSTRYQSGQAVQHQQTWVDMTGTLAGQVLHSRELLLVNLADIALLAPDDKQLASMLDAGLQAVCLLPLFFGHKMLGVLKLAQCQSDIFTGSNLKLLRQIAARIAIAVDNALAYNEITRLKDS”: the protein production result is on record as “failed”.

For “RFEGGDHDLIPNNDAQNAAVNRALNAEDFALVHGPPGTGKTYTIATLVQAFVARGDRVLVSAFTNRAVDNALDALRQQGHEDIVRVGTETGVRADMQDLRLDRSGDPGERAAALRSAPVVAATTATCGSRILRELEFDVVLVDEASQLTEPDTLAAINRGARFVLVGDHEQ”, the protein production entry is recorded as “failed”.

As to “RIVLRREFEGNGILDGIGKKIEEGDYDIVEYNSDKWYQIHKYYSGIDNSLKGVYINISTPPELLRGKIRYLDLEIDIAIRDSEIALLDEDELNKKSIYMPSS”, the protein production entry is given as “failed”.

Take “RNRRREEAARHYLECVLDGLTTGVVVFDEKGRLKTFNKAAEQILGMPLAPLWGSSRHGWHGVSAQQSLLAEVFAAIGAAAGTDKPVQVEYAAPDDAKILLGKATVLPEDNGNGVVMVIDDIT”: the protein production result is “failed”.

Take “RNVWVVAELDEQGVSEASLQMLTPARRIADKLGESVVGVIAGPPGSSQLAVEMVERGADEVIVVEHERLSEYYPDVVGSVIVELSLKYKPSVILFAATARGREMAPYVANTLKTGITADCTDFDVDPKTRDVLLIRPPFSAIMLAYIRTPFRRPQIGTARPNVFPLPERQPGRQGRIVREEVEPPEPMARLVNRV”: the protein production result is “not failed”.

“RPQGLHLELETRLQKMYGIRQVIVVEATEPDDEESIKQAIGSAAAHYLETSLSAQDHIGISSWSSTIRAMVSHMHPQPGKQSAQEVVQLLGGVGNKGAFEATLLTQRLATLLNCPAFLLPSQSIEQSVESKQRIVEMEEVKEVLHRFDSITLAIVGIGELEPSQLLRNSGNYYTEDMLRVLAERGAVGDICLRYFDAQGKPVLEEDEEFVVSMGLGKLRSINRVLGLAGGVRKVQAIKGALLGGYLDVLITDVGTARGLGG”: the protein production entry was “not failed”.

With “RRENHQTIQEFLERIHLQEYTSTLLLNGYETLDDLKDIKESHLIELNIADPEDRARLLSAAESLL”, the protein production entry is reported as “not failed”.

“RSFGLIIPDLENTSYARLAKLIEQNSRKAGYQILIGCSDDDPETEKKVAEALISRRIDALFVASGMPSANEYYLKLQNSGTPVIALDRPMDDEHFCCVISEDFDAAFELTESVLSPEIKTIGLIGALQDLQVSKERELGFRSACQKDDTAMTVGYGLHFSREEGKKVLDKWVQADSLPDAIVTTSYTLLEGVLDVMLEKPELMSQVRLATFGDNRLLDFLPVKINSLPQQFELIADSAMELALNASAKRYKPGVELIPRKIVKRQ”: the protein production entry is “failed”.

For the sequence “RSKTVILAKNLPAGTLAAEIQETFSRFGSLGRVLLPEGGITAIVEFLEPLEARKAFRHLAYSKFHHVPLYLEWAPIGVFGAAPQKKDSQHEQPAEKAE”, the protein production result is on record as “not failed”.

Regarding “SAQDEEDRVLIHFNVRDIKIGPECHDVQPPEGRSRDGLLTVNLREGGRLHLCAETKDDALAWKTALLEANSTPVRVYSPYQDYYEVVPPNAHEATYVRSYYGPPYAGPGVTHVIVREDPCYSAGAPLAMGMLAGAATGAALGSLMWSPCWF”, the protein production entry was “failed”.

“SAQSLSSEPDILFLDGWQLRYQAFAARADDPRPPVLLLGGAFQSFRSFTGEVSELLAEHPVILLDLPSQGGNLQLAAELSLEDLADLIAAFAEQLGLPPLMPIGLSYGSALAALFAARHPRRCARLLLAGITAFGRPGARLLLEEALARLDEGDQSAFAHGVLTGLINPLQLERTGVSPVFRKAMLRQLQRLTAAEIERYRQNSRRLLAFGGFERHPTCPTLVLAGEYDHFTQPWEHAVFAHACGNAEFALIHDADHLAQFERREACARLYGPFLRG”: the protein production result is given as “failed”.

In the case of “SAWALKLPLADEVIESGLVQDFDASLSGIGQELGAGAYSMSDVLALPIFKQEESSLPPDNENKILPFQYVLCAATSPAVKLHDETLTYLNQGQSYEIRMLDNRKLGELPEINGKLVKSIFRVVFHDRRLQYTEHQQLEGWRWNRPGDRILDIDIPMSVGIIDPRANPTQLNTVEFLWDPAKRTSVFIQVHCISTEFTMRKHGGEKGVPFRVQIDTFKENENGEYTEHLHSASCQIKVFKPKGADRKQKTDREKMEKRTPHEKEKYQPSYETTILTECSPWPEITYVNNSPSPGFNSSHSSFSLGEGNGSPNHQPEPPPPVTDNLLPTTTPQEAQQWLHRNRFSTFTRLFTNFSGADLLKLTRDDVIQICGPADGIRLFNALKGRMVRPRLTIYVCQESLQLREQQQQQQQQQQKHEDGDSNGTFFVYHAIYLEELTAVELTEKIAQLFSISPCQISQIYKQGPTGIHVLISDEMIQNFQEEACFILDTMKAETNDSYHIILK”, the protein production entry was “failed”.

“SDIVRKTIDNDISTKWRLKTLSEKLNLSEVTIRKKLENENTNFYRILLDARMQKAARLVLDSDTHINKVSYAVGMSSVSYFIKLFSDYYGLTPKQFHLKYKHRNTGEKAAFMLYN”: the protein production result is reported as “failed”.

As for “SDMGTSALSKKPWWTLPQNFHAPMVFHMEEDQEELIFGHGDTYLRCIEVHSHTLIQLESWFTATGQTRVTVGPHRARQWLLHMFCCVGSQDSYHHARGLEMLERVRSQPLTNDDLVTSISVPPYTGDLSLAPRISGTVCLSVPQPSPYQVIGCSGFHLSSLYP”, the protein production entry is listed as “failed”.

Consider “SDRGQAEEAAGRQARAVSLAIADSPSVAEAIRTPDPTALLQPYAVRVMRDTDVDFVTIMNPEGIRWTHPEPTEIGHLFQGHIERAQRGQTFTETYTGTLGPSVRAVTPIVDDGRIVGLVSAGIKVEEIS”, for which the protein production result is recorded as “failed”.

As for “SDSLETTQQDYPDCFFQHVKVNVKNPYDLTRQVCSSMDQWLTERLDSEPLSLAILVDSATSILYLSNQSNSFSLLFHYLRVMGRKLSPTLYCVCQLIHFDMGYGDELLKEAKFYDSLILQLDALPLGVPSEQDGRLSIEERDQAISTVLFKILENQIKFFTI”, the protein production result is reported as “failed”.

Consider “SDWLWQTDAHGRLVHVPERFVEVAKLPPSLLIGAPLADVIGMLCPEDGRCAMGVAAKMAQREPMNDLVVHVVIGGTPRLWSLTAKPMFDAAGEFAGYRGVGRDVTERWRAEQAEAENRAKSSFLAMMSHEIRTPMNGVLGLANSLLETK”, for which the protein production result is “failed”.

For “SDYEKFLLFGDSITEFAFNTRPIEDGKDQYALGAALVNEYTRKMDILQRGFKGYTSRWALKILPEILKHESNIVMATIFLGANDACSAGPQSVPLPEFIDNIRQMVSLMKSYHIRPIIIGPGLVDREKWEKEKSEEIALGYFRTNENFAIYSDALAKLANEEKVPFVALNKAFQQEGGDAWQQLLTDGLHFSGKGYKIFHDELLKVIETFYPQYHPKNMQYKLKDWRDVLDDGSNIMS”, the protein production result is “not failed”.

With “SEAEGNQVYFAVYTFKARNPNELSVSANQKLKILEFKDVTGNTEWWLAEVNGKKGYVPSNYIRKTE”, the protein production result is listed as “not failed”.

Take “SEEDNRAPQLWRKTLTAPAPFADETNCQCQAPHEKLTIAQARLGTPADRPVRVYADGIFDLFHSGHARALMQAKTLFPNSYLLVGVCSDDLTHKFKGFTVMNEAERYEALRHCRYVDEVIRDAPWTLTPEFLEKHKIDFVAHDDIPYSSAGSDDVYKHIKEAGMFVPTQRTEGISTSDIITRIVRDYDVYARRNLQRGYTAKELNVSFINEKRYRFQNQVDKMKEKVKNVEERSKEFVNRVEEKSHDLIQKWEEKSREFIGNFLELFGPDGAWKQMFQERSSRMLQALSPKQSPVSSPTRSRSPSRSPSPTFSWLPLKTSPPSSPKAASASISSMSEGDEDEK”: the protein production entry is “failed”.
